Test results taken from patent US20130183378A1 (CEDARS SINAI MEDICAL CENTER, published 2013).

B1: CD133-708 (peptide)
peptide: GLLERVTRI
notes: Free peptide added to T2 cells; also called peptide 708
B2: CD133-301 (peptide)
peptide: SLNDPLCLV
notes: Free peptide added to T2 cells; also called peptide 301
B3: CD133-804 (peptide)
peptide: FLLPALIFAV
notes: Free peptide added to T2 cells; also called peptide 804
B4: CD133-117 (peptide)
peptide: LLFIILMPLV
notes: Free peptide added to T2 cells; also called peptide 117
B5: mouse counterpart of SEQ ID NO:1, MLLQVSHYL (SEQ ID NO:11) (peptide)
peptide: MLLQVSHYL
notes: Free peptide added to T2 cells at 0, 10 or 100 µM; also called mouse peptide

target: T1, HLA-A*0201 on T2 cells (human); assay: T2 cell HLA-A*0201 stabilisation; 100 µM peptide overnight, Brefeldin A, BB7.2 mAb staining, flow cytometry; MFI minus no-peptide control
T1 construct: the class I molecule on T2 cells that the added peptide stabilises; also called HLA-A2; HLA-A2 molecules
Procedure: The cells were then incubated with Brefeldin A (Sigma, St. Louis, Mo.) at 10 μg/ml for 1 hour, washed, incubated at 37° C. for 0, 3, or 6 hours in the presence of Brefeldin A (0.5 μg/ml), and then stained with BB7.2 mAb.

MFI (0 hour) [MFI]	MFI (3 hour) [MFI]	MFI (6 hour) [MFI]	Binder
13.1	14.8	1.3	B1
10.7	14.3	13.3	B2
89	67.6	34.7	B3
79.7	69.3	44.5	ILSAFSVYV (Free peptide added to T2 cells) [CD133-405]
5.5	7.5	1.01	B4

target: T1, HLA-A*0201 on T2 cells; assay: T2 cells incubated overnight with 0, 10 or 100 µM peptide, Brefeldin A, BB7.2 mAb staining, flow cytometry; fluorescence increased in a dose-dependent manner
Procedure: T2 cells were incubated overnight with 0 μM, 10 μM, or 100 μM of SEQ ID NO:11. The cells were then incubated with Brefeldin A (Sigma, St. Louis, Mo.) at 10 μg/ml for 1 hour, washed, incubated at 37° C. in the presence of Brefeldin A (0.5 μg/ml), and then stained with BB7.2 mAb. Fluorescence intensity was measured by flow cytometry.

binding result	Binder
binds	B5
